Assay results from paper PMC8417825, “Light-Induced Dynamic Change of Phytochrome B and Cryptochrome 1 Stabilizes SINATs in Arabidopsis” (Frontiers in Plant Science, 2021).

B2: SINAT2-His (natural protein, Arabidopsis thaliana, UniProt Q9M2P4 1-308, looked up)
chain: MAPGGSALKEVMESNSTGMDYEVKTAKVEVNNNKPTKPGSAGIGKYGIHSNNGVYELLECPVCTNLMYPPIHQCPNGHTLCSNCKLRVQNTCPTCRYELGNIRCLALEKVAESLEVPCRYQNLGCHDIFPYYSKLKHEQHCRFRPYTCPYAGSECSVTGDIPTLVVHLKDDHKVDMHDGCTFNHRYVKSNPHEVENATWMLTVFNCFGRQFCLHFEAFQLGMAPVYMAFLRFMGDENEAKKFSYSLEVGAHGRKLTWQGIPRSIRDSHRKVRDSQDGLIIPRNLALYFSGGDRQELKLRVTGRIWKEE
notes: SINAT2 (SINA of Arabidopsis thaliana 2), At3g58040; Printed both as SINAT2-His (pull-down) and His-SINAT2 (ubiquitination assay); also called His-SINAT2

Key:
Test in all cases: pull-down; in vitro pull-down: about 5 ug GST-tagged protein on glutathione resin, about 2 ug His-tagged protein added, 1 h at 4°C; washed with 1x PBS, 0.1% Triton X-100; anti-His blot
Details in all cases: both partners purified
SINAT2-His = molecular target: B2
CRY1-N-GST = molecular target: T1, CRY1-N-GST (Arabidopsis thaliana, UniProt Q43125 1-490)
T1 construct: cryptochrome 1 (CRY1), Arabidopsis thaliana, N-terminus, amino acids 1-490; Cloned into pGEX-4T-1; also called N-terminus of cryptochrome 1; source: E. coli BL21 (DE3) pLysS, purified (glutathione resin)

phyB-N-GST = molecular target: T2, phyB-N-GST (Arabidopsis thaliana, UniProt P14713 1-645)
T2 construct: phytochrome B (phyB), Arabidopsis thaliana, N-terminus, amino acids 1-645; also called N-terminus of phytochrome B; source: E. coli, purified (glutathione resin)
T2 sequence (looked up): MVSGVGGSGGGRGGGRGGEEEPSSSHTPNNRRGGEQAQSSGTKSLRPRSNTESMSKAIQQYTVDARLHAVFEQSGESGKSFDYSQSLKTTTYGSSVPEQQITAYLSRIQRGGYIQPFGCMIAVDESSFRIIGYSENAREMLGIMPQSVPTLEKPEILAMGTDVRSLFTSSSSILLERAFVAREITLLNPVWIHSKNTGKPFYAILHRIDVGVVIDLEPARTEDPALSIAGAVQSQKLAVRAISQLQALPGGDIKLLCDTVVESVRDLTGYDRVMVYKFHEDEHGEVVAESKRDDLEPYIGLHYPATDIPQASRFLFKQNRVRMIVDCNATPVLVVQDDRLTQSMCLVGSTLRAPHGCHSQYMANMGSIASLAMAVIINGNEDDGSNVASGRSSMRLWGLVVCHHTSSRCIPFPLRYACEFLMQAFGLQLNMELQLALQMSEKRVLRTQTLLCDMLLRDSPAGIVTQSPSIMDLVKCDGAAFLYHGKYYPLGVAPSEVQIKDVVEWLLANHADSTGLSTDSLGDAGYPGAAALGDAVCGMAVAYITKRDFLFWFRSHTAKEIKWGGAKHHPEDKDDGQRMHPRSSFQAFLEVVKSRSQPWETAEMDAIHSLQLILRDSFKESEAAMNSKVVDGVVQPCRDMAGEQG

phyB-C-GST = molecular target: T3, phyB-C-GST (Arabidopsis thaliana, UniProt P14713 646-1172)
T3 construct: phytochrome B (phyB), Arabidopsis thaliana, C-terminus, amino acids 646-1,172; Cloned into pGEX-4T-1; also called C-terminus of phytochrome B; source: E. coli BL21 (DE3) pLysS, purified (glutathione resin)
T3 sequence (looked up): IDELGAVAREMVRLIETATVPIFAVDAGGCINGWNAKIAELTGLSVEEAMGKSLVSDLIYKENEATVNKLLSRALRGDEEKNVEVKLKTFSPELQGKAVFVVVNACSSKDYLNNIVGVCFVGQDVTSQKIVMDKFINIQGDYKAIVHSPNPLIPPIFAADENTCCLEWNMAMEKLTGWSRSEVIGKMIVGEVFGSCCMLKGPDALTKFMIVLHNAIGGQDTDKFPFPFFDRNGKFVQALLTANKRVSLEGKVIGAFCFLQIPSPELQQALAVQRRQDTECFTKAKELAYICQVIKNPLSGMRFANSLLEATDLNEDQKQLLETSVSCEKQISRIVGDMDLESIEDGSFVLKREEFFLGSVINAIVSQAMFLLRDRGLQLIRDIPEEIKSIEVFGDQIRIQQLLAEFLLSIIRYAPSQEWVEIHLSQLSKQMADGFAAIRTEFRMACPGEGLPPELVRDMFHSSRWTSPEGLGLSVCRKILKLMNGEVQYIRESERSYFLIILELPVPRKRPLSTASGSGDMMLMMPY

T1 sequence (Q43125 1-490): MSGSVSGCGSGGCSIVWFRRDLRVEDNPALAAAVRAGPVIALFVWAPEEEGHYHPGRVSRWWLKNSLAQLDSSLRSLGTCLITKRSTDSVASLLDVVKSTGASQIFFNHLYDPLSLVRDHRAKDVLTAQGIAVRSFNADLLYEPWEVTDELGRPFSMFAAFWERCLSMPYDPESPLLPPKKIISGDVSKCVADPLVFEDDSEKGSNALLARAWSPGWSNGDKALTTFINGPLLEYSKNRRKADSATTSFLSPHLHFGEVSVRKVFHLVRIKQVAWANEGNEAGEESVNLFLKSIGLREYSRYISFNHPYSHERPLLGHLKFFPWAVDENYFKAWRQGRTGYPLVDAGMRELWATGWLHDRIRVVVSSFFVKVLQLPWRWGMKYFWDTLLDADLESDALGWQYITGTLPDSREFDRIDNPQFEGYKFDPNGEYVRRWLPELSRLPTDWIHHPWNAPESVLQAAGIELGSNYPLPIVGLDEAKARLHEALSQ

B1: CRY1-C-GST (domain or fragment, Arabidopsis thaliana, UniProt Q43125 491-681, looked up)
chain: MWQLEAASRAAIENGSEEGLGDSAEVEEAPIEFPRDITMEETEPTRLNPNRRYEDQMVPSITSSLIRPEEDEESSLNLRNSVGDSRAEVPRNMVNTNQAQQRRAEPASNQVTAMIPEFNIRIVAESTEDSTAESSSSGRRERSGGIVPEWSPGYSEQFPSEENGIGGGSTTSSYLQNHHEILNWRRLSQTG
notes: cryptochrome 1 (CRY1), Arabidopsis thaliana, C-terminus, amino acids 491-681; Cloned into pGEX-4T-1; also called C-terminus of cryptochrome 1; source: E. coli BL21 (DE3) pLysS, purified (glutathione resin)
Does B1 bind (SINAT2-His)?
Result: binds

Does B2 bind (CRY1-N-GST)?
Result: binds

Does B2 bind (phyB-N-GST)?
Result: binds

Does B2 bind (phyB-C-GST)?
Result: binds
